# Assay results as given in the supplement of paper PMC10567573.
# ± gives the standard deviation.
# Assay: protein stability index of a GFP-peptide fusion (GPS, HEK-293T) (PSI 1-6); higher = more stable
# [1] = treatment: DMSO, c terminus: a fixed tail appended
# [2] = treatment: MLN4924 1 uM, 8 h, c terminus: a fixed tail appended
# 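Note: 24-mer peptide tiles fused after GFP, lentivirally expressed, FACS-sorted into six equal bins by GFP/DsRed ratio, decoded by Illumina sequencing, PSI is the read-weighted mean bin number.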
Sequence,protein stability index [1],protein stability index [2],"protein stability index (treatment: DMSO, c terminus: native)","protein stability index (treatment: MLN4924 1 uM, 8 h, c terminus: native)"
KSSSLLTQTSEECNGILTEKMEEE [ZNF396],5.56 ± 0.15,5.54 ± 0.27,–,–
SHRVVLRPRGKERHKSGVHQPPQA [LYSMD4],3.91 ± 0.2,3.98 ± 0.3,–,–
RLRASFSRKPSLKGNREDSARMSA [PLEKHN1],4.08 ± 0.21,4.21 ± 0.078,–,–
AALIEAIQDRLSNTLQTYIRCRHP [VDR],2.49 ± 0.5,2.54 ± 0.32,–,–
IRKLVAEKLNIPWNHIRLQRTAKG [AASDHPPT],2.31 ± 0.27,2.44 ± 0.33,–,–
SREYKLVMLGAGGVGKSAMTMQFI [RIT1],2.51 ± 0.46,2.27 ± 0.42,–,–
AYVAEREDELSLVKGSRVTVMEKC [NCK2],4.31 ± 0.31,4.48 ± 0.19,–,–
PYFSPSASFHHKLHHKRLAKECML [CBY2],2.56 ± 0.11,2.5 ± 0.32,–,–
EQHISKCKKAFREGSRKSSRVKGS [KMT2E],4.59 ± 0.26,4.63 ± 0.25,–,–
QKISLLHSCTCVLYTPSNEHFGIV [ALG2],2.55 ± 0.84,2.61 ± 0.8,–,–
VEPKHCFTSPDYQQQCHEMAERLE [SDE2],4.85 ± 0.21,4.83 ± 0.18,–,–
LGHAVLPSNARGPILSRSTSTGSA [SPRY1],3.93 ± 0.18,4.15 ± 0.098,–,–
LGGYVKIDLATWNFQFLPQVNGHP [PTPN9],2.92 ± 0.57,2.74 ± 0.86,–,–
ENPDLQEAYIAKQKRLKSKLLDHD [GDAP1],4.53 ± 0.11,4.67 ± 0.15,–,–
ELEKAHLALIDYLTQKRSQLVKKL [VPS39],2.28 ± 0.39,2.58 ± 0.23,–,–
VSNTYVKQKTSAALSTMGTLICRK [TPD52L3],3.41 ± 0.55,2.98 ± 0.41,–,–
KCRDLSALMHELSNDGARRQFEFY [BTBD10],2.06 ± 0.3,2.23 ± 0.3,–,–
PYQCSQCSKSYSRRSFLIEHQRSH [ZSCAN9],4.3 ± 0.2,4.45 ± 0.43,–,–
ALENLQVEASCSVCLEYLKEPVII [TRIM39],2.77 ± 1,2.95 ± 0.58,–,–
VHYLHSKRIAHFDLKPENIMLLDK [DAPK3],2.33 ± 0.34,2.17 ± 0.28,–,–
TVDSMIPAYATTRIRSQIGNTESE [GDAP1],4.86 ± 0.16,4.99 ± 0.076,–,–
EDDVSFLMKHKSRKRRLFCTMEPE [TRIM35],3.61 ± 0.28,3.74 ± 0.19,–,–
EQGLSALHLAAQGRHAQTVETLLR [RIPK4],3.71 ± 0.55,4.12 ± 0.23,–,–

Sequence,protein stability index [1],protein stability index [2],"protein stability index (treatment: DMSO, c terminus: native)","protein stability index (treatment: MLN4924 1 uM, 8 h, c terminus: native)"
KIGCGNFGELRLGKNLYTNEYVAI [CSNK1G1],2.51 ± 0.54,2.12 ± 0.59,–,–
RQLAYSTVGTPDYIAPEVFMQTGY [STK38L],3.06 ± 0.46,3.29 ± 0.42,–,–
SIPVTELSASGPFESHDLLRKGFS [POMP],3.5 ± 0.25,3.39 ± 0.34,–,–
KQLLNSAVIAQQRRKPDPPKDENE [DLC1],5.35 ± 0.28,5.41 ± 0.12,–,–
QRARKEREKEDYLHLKRQPKRRWL [RHOBTB2],4.05 ± 0.23,4.16 ± 0.23,–,–
WAQYRQGEARFLPKDLDPSLCTHL [CHIT1],2.65 ± 0.31,2.78 ± 0.39,–,–
IKPSENHYSLLTSQPLDREATSHY [PCDHGC5],3.87 ± 0.062,3.93 ± 0.38,–,–
PGPERLFDSHRLPGDCFLLLVLLL [AUP1],2.46 ± 0.54,2.14 ± 0.59,–,–
PQTLIMAYDYAKEVNSAEELEGLI [FEM1C],3.75 ± 0.32,3.56 ± 0.27,–,–
YLHNHFIGEGMTKYDYLMTLHGVV [TENT5D],2.83 ± 0.6,2.48 ± 0.62,–,–
HDRNMDWVSTQLQATCNVHKSAFN [FADS1],3.22 ± 0.29,3.46 ± 0.2,–,–
DISLGQKEDGEPSWREAKVSWFGS [PWWP2B],3.15 ± 0.14,3.39 ± 0.14,–,–
VGGVLRGLNHSLSYDVALHRTRLQ [SCARA5],2.59 ± 0.18,2.84 ± 0.32,–,–
ACHPFLLGPPLVRKRIHDSRVAGF [TOR1AIP2],2.51 ± 0.39,2.5 ± 0.18,–,–
PPGLPAETIKDLMRQFLRGLDFLH [CDK4],2.21 ± 0.075,2.57 ± 0.7,–,–
DSHILLCLMGLAETPGCATLLPAS [DCAF4],2.67 ± 0.45,2.58 ± 0.55,–,–
IVRFLESNWFVWVTQMNHIPMHID [FADS1],3.08 ± 0.95,3.1 ± 1,–,–
TAAGGQGGPGGPGSDKQQQQQHIE [NR2F2],5.34 ± 0.27,5.47 ± 0.19,–,–
MKSAMRKLWSKKVSLAGKWLYHS [OR4A15],–,–,2.47 ± 1.1,2.59 ± 0.44
RYEPDSKAFGVGVAYRSLGRFEQL [FSD1],2.48 ± 0.38,2.63 ± 0.33,–,–
QKSPWCEARSLEHTLPVNRETLKR [ESR2],4.23 ± 0.16,4.41 ± 0.21,–,–
KGFSHLDVMLVECYDPKGDQWNIL [KLHL14],2.82 ± 0.6,2.9 ± 0.68,–,–
LSFATRFHRLDEPPHICWDETHFG [POMT2],2.25 ± 0.29,2.25 ± 0.26,–,–

Sequence,protein stability index [1],protein stability index [2],"protein stability index (treatment: DMSO, c terminus: native)","protein stability index (treatment: MLN4924 1 uM, 8 h, c terminus: native)"
EKLSRGLRYYYDKNIIHKTSGKRY [ETS2],2.74 ± 0.34,2.92 ± 0.2,–,–
PALKECIQGADTIRCVYILDPWFA [CRY1],2.95 ± 0.55,2.73 ± 0.74,–,–
APDEKRSNVRWDHESVCKYYLCGF [LUC7L3],2.34 ± 0.28,2.41 ± 0.24,–,–
RSFKEELLCAVCYDPFRDAVTLRC [TRIM35],2.58 ± 0.63,2.61 ± 0.61,–,–
HHFNSSHLEIDDMYTPAYGDFDFD [MYORG],4.34 ± 0.11,4.23 ± 0.24,–,–
GLQVEGLRRRLEELQQELSLKDQE [LRRC45],4.47 ± 0.17,4.73 ± 0.16,–,–
YQSYFKTIEELQQKILCSKSENAR [KRT33B],2.57 ± 0.38,2.84 ± 0.49,–,–
ISVLQQQGSLSNTYLSKVDPDGKK [FBXO33],4.45 ± 0.18,4.46 ± 0.2,–,–
EDVDTSQVLYEWEQGFSQSFTQEQ [CTNNB1],5.03 ± 0.23,5.07 ± 0.21,–,–
CDPGLTAFEPEALGNLVEGMDFHR [CAMK2D],4.33 ± 0.43,4.21 ± 0.24,–,–
LLAHRLRRWHKSRLLQASGGGLTG [PCDHGA10],2.52 ± 0.47,2.07 ± 0.35,–,–
SQRQAKELKLEQQEAAERESKLLR [LRRC45],5.17 ± 0.28,5.22 ± 0.1,–,–
VLNDRFQRQKYLSLQQMQELSNIL [NANOGP8],2.52 ± 0.11,2.64 ± 0.32,–,–
MKLFLDCLKEFPEKQELHRNMLGL [ZER1],2.35 ± 0.11,2.4 ± 0.35,–,–
DPESERALQAPHSPSKTDGKELAG [PBXIP1],5.48 ± 0.28,5.75 ± 0.25,–,–
GLSAPHSRQIPAPQGAVLVQREKD [KISS1],5.34 ± 0.19,5.19 ± 0.087,–,–
FQFTDWPEQGVPKSGEGFIDFIGQ [PTPRD],2.68 ± 0.22,2.84 ± 0.31,–,–
SYPRTPHTPGTPKSAILVPSEKKV [MAP2],4.6 ± 0.053,4.74 ± 0.26,–,–
TPIEVLCENFPEMATYLRYVRRLD [CSNK1G3],2.39 ± 0.3,2.6 ± 0.44,–,–
EPYGHLNPKWTKWLQKLCCPCCFG [PI4K2A],3.33 ± 0.33,3.37 ± 0.21,–,–
RSFSDKQKISLLHSCTCVLYTPSN [ALG2],2.17 ± 0.28,2.1 ± 0.32,–,–
EEDNVEESEEEGPWEPPVLPILTW [HDAC6],4.33 ± 0.29,4.62 ± 0.3,–,–
RRCTNIRPGETGMDVTSRCTLGDP [KLHL20],3.99 ± 0.24,4.13 ± 0.21,–,–

Sequence,protein stability index [1],protein stability index [2],"protein stability index (treatment: DMSO, c terminus: native)","protein stability index (treatment: MLN4924 1 uM, 8 h, c terminus: native)"
LAGTFHYYSCERAKKAMGYQPLVT [NSDHL],2.2 ± 0.12,2.27 ± 0.13,–,–
ASWYSLSKGMQDFNYLHTNCFEIT [CPN1],2.56 ± 0.58,2.23 ± 0.4,–,–
PSPGVLCGSARPKPYDPPGEKMVA [ATF4],4.37 ± 0.28,4.6 ± 0.23,–,–
EEGLEARGEALGLVGAQAPATEEQ [MAGEA3],5.57 ± 0.27,5.39 ± 0.34,–,–
SSFPPSPGPSPDVQLATLAQRVKE [AUP1],5.1 ± 0.26,5.05 ± 0.15,–,–
PAPASPAISVVGVSAGGHTLSRPP [TFE3],4.37 ± 0.28,4.38 ± 0.25,–,–
NAGLVWFFPWREAKPGSTEKGLPL [MFSD9],2.23 ± 0.18,2.16 ± 0.29,–,–
LDSDHRELIGDYSKAFLLQTVDGK [CDC25B],3.77 ± 0.061,3.81 ± 0.2,–,–
EAMAEKNRRDVEAWFFSKTEELNK [KRT15],4.15 ± 0.23,4.21 ± 0.25,–,–
ICSLICLLIYTVKIRRFNKAKPEP [TMEM192],2.24 ± 0.52,2.44 ± 0.63,–,–
APRFNQQLYTAYILENRPPGSLLC [PCDHGC5],2.1 ± 0.2,2.07 ± 0.28,–,–
LHLAAQGRHAQTVETLLRHGAHIN [RIPK4],2.4 ± 0.31,2.98 ± 0.51,–,–
TGLVGLFVDFFVRLFTQLKFGVVQ [CLCN6],2.36 ± 0.36,2.54 ± 0.22,–,–
EKGLPLRKTHVLLGRSHDTVQEAA [MFSD9],4.22 ± 0.23,4.15 ± 0.34,–,–
FCIPEHISPKARCLIRSLLRREPS [TRIB1],2.34 ± 0.47,2.03 ± 0.32,–,–
SNLSVENVADTLVLADLHSAEQLK [SPOPL],4.65 ± 0.27,4.61 ± 0.19,–,–
RKRAVPCGACLTQLFFFHLFVGVD [OR3A1],2.82 ± 0.3,2.74 ± 0.45,–,–
DKCSAPKIWRTPNGKTIEMDTQFT [IQUB],3.53 ± 0.28,3.6 ± 0.21,–,–
TLKRGYFQKSLVLISKLPYIHFFH [DENND6A],3.11 ± 0.73,2.7 ± 0.3,–,–
TFSGDVQLAQDDIDGIQAIYGRSQ [MMP1],4.27 ± 0.21,4.55 ± 0.14,–,–
